These results are taken from publication PMC7387808 (Cellular and Molecular Immunology, 2020).

Usually Kd stands for a measure of binding affinity in units of concentration. One may read the koff as the rate constant with which the complex falls apart. A word on the kon: it is a measure of how fast the partners come together.

For this assay, the target named is T1, TOM70 (full-length, recombinant, analyte of the BLI) (human, UniProt O94826 1-608).
T1 construct: also called Mitochondrial import receptor subunit TOM70
T1 sequence (looked up): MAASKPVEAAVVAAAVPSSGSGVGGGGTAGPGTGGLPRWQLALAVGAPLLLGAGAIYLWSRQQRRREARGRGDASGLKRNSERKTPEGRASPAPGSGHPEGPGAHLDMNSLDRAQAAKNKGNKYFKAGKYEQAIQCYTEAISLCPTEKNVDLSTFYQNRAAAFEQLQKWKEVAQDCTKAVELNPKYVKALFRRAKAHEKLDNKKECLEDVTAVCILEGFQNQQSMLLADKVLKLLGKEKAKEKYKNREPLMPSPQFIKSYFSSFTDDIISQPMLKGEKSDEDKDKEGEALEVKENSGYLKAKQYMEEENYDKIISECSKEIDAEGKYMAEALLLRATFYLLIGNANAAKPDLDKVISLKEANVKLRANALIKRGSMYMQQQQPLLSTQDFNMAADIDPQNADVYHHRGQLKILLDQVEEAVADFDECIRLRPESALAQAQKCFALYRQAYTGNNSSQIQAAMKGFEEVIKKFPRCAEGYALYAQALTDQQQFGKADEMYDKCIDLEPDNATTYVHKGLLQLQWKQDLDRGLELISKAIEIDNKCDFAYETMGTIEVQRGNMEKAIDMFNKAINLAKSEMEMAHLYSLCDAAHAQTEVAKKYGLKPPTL
Put plainly: BLI; […]; kinetics ([…]) buffer 1x PBS pH 7.4, 0.1% BSA, 0.02% Tween-20; association 5 min, dissociation 5 min; […]; 1:1 global fit. To be noted: both partners purified. (BLI is a label-free optical method that tracks binding on a fibre tip over time.)

B1: SARS-CoV Orf9b, biotinylated (C-terminal Avi-His6) (natural protein)
chain: MDPNQTNVVPPALHLVDPQIQLTITRMEDAMGQGQNSADPKVYPIILRLGSQLSLSMARRNLDSLEARAFQSTPIVVQMTKLATTEELPDEFVVVTAK
notes: also called Biotinylated Orf9b
On to B1, for which the Kd came to 41.6 ± 1.01 nM, the koff amounted to 0.00244 s⁻¹ and the kon worked out at 58600 M⁻¹ s⁻¹.
